Laboratory results taken from publication PMC2846751 (Biochemistry, 2010).

B1: His6-ParE toxin (ParE1) of Caulobacter crescentus (natural protein, UniProt Q9A9T8 1-96, looked up)
chain: MKPYRLSRRAKADLDDIWTYSEQRWGVEQAADYARELQATIEMIAEHPGMGQPDENLRAGYRRCASGSHVVFYRVGVRVEIIRVLHQSMNARAHLG
modifications: selenomethionine-labeled in the crystal and SAXS samples

Key:
[1] = target: ParD antitoxin (ParD1) of Caulobacter crescentus (Caulobacter crescentus); assay: SEC
[2] = target: the molecule itself; assay: crystal structure

Molecule	stoichiometry N [1]	binding result [2]
ParD antitoxin (ParD1) of Caulobacter crescentus (natural protein)	2	
B1		binds
